Reference: patent US20240091375A1, “AN ANTIBODY FRAGMENT BASED ANTIMICROBIAL CONJUGATE SELECTIVELY TARGETING PSEUDOMONAS” (priority 2020, published 2024)

Experiments:
P. aeruginosa [1] = experiment: Kill kinetics by ATP measurement (bacterial live dead assay); format: cell-based, Pseudomonas aeruginosa; conditions: ATP at different time points, FIG. 7; Histatin 5 and Seq. ID 21 compared with each other
Source text: FIG. 7 is a representative graph showing the kill kinetics of Seq. ID 21, Seq. ID 6, on P. aeruginosa with Histatin 5, positive control—Meropenem, and negative controls—media and culture.
Kill kinetics was done by measuring the adenosine triphosphate (ATP) during different time points using the bacterial live dead assay. […] ID 21 was similar showing bactericidal activity was due to the released Histatin on contact with the Pseudomonas. A positive control used was antibacterial Meropenem drug to show the efficiency of killing. […] The VHH antibody Seq.

Pseudomonas aeruginosa = experiment: Microbiological agar-plate assay for bactericidal activity (MIC-99, MIC-50); format: cell-based; conditions: for MIC-50 (minimal inhibitory concentration for killing 50% microorganisms) / MIC-99 (minimal inhibitory concentration for killing 99% microorganisms): in vitro, agar-plate assay; for MIC-99 (minimal inhibitory concentration for killing 99% microorganisms): FIG. 5, Seq. ID6 value printed with 'anaerobic conditions'
Description: FIG. 5 is representative microbiological agar-plate assay to determine MIC-99 of purified Seq. ID 21, and Seq. ID 6;
Microbiology assays were done with the purified VHH with Seq. ID 6 and the antibody fragment based antimicrobial conjugate of Seq. ID 21 to see their bactericidal activity. As depicted in FIG. 5, the MIC-99 of the Seq. […] ID21 with a value less than 0.5 μM. The MIC-50 of Seq. ID 6 antibody fragment alone was less than 2.5 μM and that of Seq. ID 21 was less than 0.125 μM.

[2] = test system: whole cell Pseudomonas spp.; experiment: Whole cell ELISA binding; conditions: FIG. 6a
Source text: FIG. 6a is a representative graph depicting the binding affinity of Seq. ID21 and Seq. ID 6 to whole cell Pseudomonas spp. in an ELISA assay;
Whole cell ELISA using Pseudomonas spp. were used to determine the binding properties of the conjugate with Seq. ID 21, and VHH Seq. ID 6. […] ID 21. Both the molecules Seq. ID 21 and Seq.

P. aeruginosa [3] = experiment: Turbidity test of P. aeruginosa culture; format: cell-based, Pseudomonas aeruginosa; conditions: treated versus untreated control, visual, FIG. 4b
Description: FIG. 4b is a representative image of turbidity test of P. aeruginosa culture in the presence (Treated) and the absence (Control) of purified Seq. ID 21;
FIG. 4b represents a turbidity test, wherein sample of the pathogen P. aeruginosa was either left untreated (Control) or was treated by addition of purified Seq. ID 21 (Treated) prodrug.

Molecule | Bactericidal activity in kill kinetics (P. aeruginosa [1]) | Reduction of MIC-99 relative to Seq. ID6 antibody fragment alone (Pseudomonas aeruginosa; conjugate versus VHH alone) | MIC-50 (minimal inhibitory concentration for killing 50% microorganisms) (Pseudomonas aeruginosa) | MIC-99 (minimal inhibitory concentration for killing 99% microorganisms) (Pseudomonas aeruginosa) | Binding ability to whole cell Pseudomonas spp. after conversion of the antibody to conjugate ([2]; ELISA) | Biological activity [2] | Turbidity of P. aeruginosa sample after treatment (P. aeruginosa [3])
Histatin 5 [reference compound] | similar |  |  |  |  |  | 
Seq. ID 21: 187 amino acid conjugate: human Histatin 5, Elastase B cleavage sequence RGGGLA, Gly-Ser linker, VHH Seq. ID6 (conjugate, Antibody fragment based antimicrobial conjugate, ID6) MGDSHAKRHHGYKRKFHEKHHSHRGYDVRGGGLAGGGGSGGGGSGGGGSHMDVQLQESGGASVQPGGSLLISCEASGLASYSNYCIMWFRQPPGKEREGVAGINLRSGITYYAEAVRPRFTISADSVDGRFAISQDNARNTVYLQMNSLKPEDTAIYYCAAGNLCGGSWSGYRYWGQGTQVTVSSLE | similar | 20 fold | less than 0.125 μM | less than 0.5 μM | no loss of binding ability | showed the desired biological activity | visually reduced
Seq. ID 6: camelid heavy chain antibody variable region fragment (VHH) specific to Pseudomonas aeruginosa antigen C4 decarboxylase transporter (protein, listed as Camelus dromedarius) VHH: DVQLQESGGASVQPGGSLLISCEASGLASYSNYCIMWFRQPPGKEREGVAGINLRSGITYYAEAVRPRFTISADSVDGRFAISQDNARNTVYLQMNSLKPEDTAIYYCAAGNLCGGSWSGYRYWGQGTQVTVSS |  |  | less than 2.5 μM | 10 µM |  | showed the desired biological activity | 
